Experiment [1] has as its target HA-RNF25 mutant lacking the Proline-Rich domain (human). Put plainly: co-IP.
Experiment [2] addresses HA-RNF25 mutant lacking the RING+L+U5BR domains (human). Nature of the experiment: co-IP.

Chain of REV7 (Q9UI95 whole entry): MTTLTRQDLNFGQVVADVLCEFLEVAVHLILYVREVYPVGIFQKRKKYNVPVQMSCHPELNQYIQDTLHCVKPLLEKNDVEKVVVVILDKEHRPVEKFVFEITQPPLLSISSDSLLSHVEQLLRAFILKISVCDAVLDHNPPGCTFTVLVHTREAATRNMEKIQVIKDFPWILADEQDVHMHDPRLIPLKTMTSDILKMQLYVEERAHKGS

Consider “REV7 (from UniProt Q9UI95 1-211) (natural protein)”, for which the fold reduction of co-precipitated REV7 against wild-type HA-RNF25 in experiment [1] is 3.13 fold; in experiment [2] it was 2.33 fold.

The record behind these values is PMC11741350.
